These results are taken from patent publication US20230165938A1.

Holding throughout (experiment): cell-based or functional assay
The target in experiment [1] is wildtype human rod opsin (human) (UniProt P08100).
The target is the same in experiment [2]. This is another data set of the same source.
The target in experiment [3] is phosphonull Rod opsin 6A mutant (human) (UniProt P08100).

Turning to “wildtype human visual arrestin (from UniProt P10523 1-405)”, in experiment [1], the Response decay (best fit Toff) of the light-driven BRET G protein (Go) activation response in Hek293T cells, arrestin co-expressed without GRK1, relative to RodWT alone (% of RodWT level) worked out at 90; the Response decay rate of the BRET G protein activation light response, arrestin and GRK1 both co-expressed with RodWT, relative to RodWT alone was found to be 2.5 x faster; the Toff of the BRET G protein activation light response, arrestin and GRK1 both co-expressed with RodWT (RodWT alone 166.16) turned out to be 65.6 s.

B1: human rhodopsin kinase (G protein receptor kinase 1) (enzyme, UniProt Q15835 1-560, looked up)
chain: MDFGSLETVVANSAFIAARGSFDGSSSQPSRDKKYLAKLKLPPLSKCESLRDSLSLEFESVCLEQPIGKKLFQQFLQSAEKHLPALELWKDIEDYDTADNDLQPQKAQTILAQYLDPQAKLFCSFLDEGIVAKFKEGPVEIQDGLFQPLLQATLAHLGQAPFQEYLGSLYFLRFLQWKWLEAQPMGEDWFLDFRVLGKGGFGEVSACQMKATGKLYACKKLNKKRLKKRKGYQGAMVEKKILMKVHSRFIVSLAYAFETKADLCLVMTIMNGGDIRYHIYNVNEENPGFPEPRALFYTAQIICGLEHLHQRRIVYRDLKPENVLLDNDGNVRISDLGLAVELLDGQSKTKGYAGTPGFMAPELLQGEEYDFSVDYFALGVTLYEMIAARGPFRARGEKVENKELKHRIISEPVKYPDKFSQASKDFCEALLEKDPEKRLGFRDETCDKLRAHPLFKDLNWRQLEAGMLMPPFIPDSKTVYAKDIQDVGAFSTVKGVAFDKTDTEFFQEFATGNCPIPWQEEMIETGIFGELNVWRSDGQMPDDMKGISGGSSSSSKSGMC
On to B1, for which, in experiment [2], the Response amplitude (A) of the BRET G protein activation light response, GRK1 (or GRK1+Arr) co-expressed with RodWT (% of RodWT amplitude) stood at 25. The Response amplitude (A) of the BRET G protein activation light response, GRK1 only co-expressed with Rod6A (scaling factor A) in experiment [3] was 0.42.
